Assay results taken from US20120064090A1, “THERAPEUTIC AGENT FOR CANCER HAVING REDUCED SENSITIVITY TO MOLECULAR TARGET DRUG AND PHARMACEUTICAL COMPOSITION FOR ENHANCING SENSITIVITY TO MOLECULAR TARGET DRUG” (KRINGLE PHARMA INC., priority 2009, published 2012).

Experiments:
PC-9 = assay: Effects of SU11274 on PC-9 with HGF-induced gefitinib-resistance; type: cell-based, human; conditions: HGF 20 ng/mL, gefitinib 0.3 μM, antibody 1 μg/mL, NK4 0.3 μM, SU11274 0.3 μM, 72 hours, FIG. 11
Experimental: PC-9 was seeded at 2×10^3 cells/well on 96-well plates and cultured for 24 hours. […] After that, 50 μL of an MTT solution (2 mg/mL, manufactured by Sigma) was added and incubation was performed at 37° C. for 2 hours. The culture media were removed, and dark blue crystals were dissolved by adding 100 μL of DMSO. The absorbance was measured with a microplate reader MTP-120 (Corona Electric Co., Ltd.) at the detection and reference wavelengths of 550 nm and 630 nm, respectively. The growth rate was shown as a relative value based on an untreated control. Each experiment was performed in triplicate and repeated thrice independently.

H1975 [1] = assay: Effects of anti-human HGF neutralizing antibody or NK4 on H1975 with HGF-induced CL-387,785-resistance; type: cell-based; conditions: CL-387,785 0.3 μM, HGF 50 ng/mL, antibody 2 μg/mL, NK4 0.3 μM, 72 hours, FIG. 10
Experimental: In the same manner as in the above (a), H1975 was seeded at 2×10^3 cells/well on 96-well plates. […] The degree of cell growth was measured by the MTT method and the growth rate was calculated in the same manner as in the above (a).

[2] = test system: tumor formed of PC-9 and MRC-5 cells; assay: Xenograft tumor (PC-9 + MRC-5) transplanted into SCID mice; type: in vivo; conditions: PC-9 + MRC-5 s.c., days 4 to 16, gefitinib 25 mg/kg/day oral, antibody 5 mg/kg/day i.p., NK4 9 mg/kg/day i.p., FIG. 6
Experimental: SCID mice (female, 5 weeks old) were purchased from CLEA Japan.
100 μL of a cell suspension containing PC-9 (5×10^6 cells) and MRC-5 (5×10^6 cells) was subcutaneously inoculated from the back skin of each SCID mouse. Four days later, mice bearing a tumor exceeding 4 mm in diameter were randomly divided into 6 groups (5 mice per group) as shown in Table 1.
In gefitinib-treated groups (groups 4, 5 and 6 in Table 1), gefitinib (25 mg/kg/day) was orally administered once daily in the morning for 13 days from 4 days to 16 days after cell inoculation. In gefitinib-non-treated groups (groups 1, 2 and 3 in Table 1), a water containing 1% Tween80 was orally administered once daily in a similar manner to the above. In anti-HGF neutralizing antibody-treated groups (groups 2 and 5 in Table 1), the anti-HGF neutralizing antibody (5 mg/kg/day) was intraperitoneally administered once daily immediately after gefitinib administration for 13 days from 4 days to 16 days after cell inoculation. In NK4-treated groups (groups 3 and 6 in Table 1), NK4 (9 mg/kg/day) was intraperitoneally administered in divided portions twice a day in the morning immediately after gefitinib administration and in the evening for 13 days from 4 days to 16 days after cell inoculation.
The width and length of tumor were measured every other day, and the tumor area (width×length) was calculated. […]

H1975 [3] = assay: Effects of SU11274 on H1975 with HGF-induced CL-387,785-resistance; type: cell-based, human; conditions: CL-387,785 0.3 μM, HGF 50 ng/mL, antibody 2 μg/mL, NK4 0.3 μM, 72 hours, FIG. 12
Experimental: H1975 was seeded at 2×10^3 cells/well on 96-well plates and cultured for 24 hours. […] The degree of cell growth was measured by the MTT method and the growth rate was calculated in the same manner as in the above (a).

B1: NK4 (protein, listed as Homo sapiens)
chain 1: MWVTKLLPALLLQHVLLHLLLLPIAIPYAEGQRKRRNTIHEFKKSAKTTLIKIDPALKIKTKKVNTADQCANRCTRNKGLPFTCKAFVFDKARKQCLWFPFNSMSSGVKKEFGHEFDLYENKDYIRNCIIGKGRSYKGTVSITKSGIKCQPWSSMIPHEHSFLPSSYRGKDLQENYCRNPRGEEGGPWCFTSNPEVRYEVCDIPQCSEVECMTCNGESYRGLMDHTESGKICQRWDHQTPHRHKFLPERYPDKGFDDNYCRNPDGQPRPWCYTLDPHTRWEYCAIKTCADNTMNDTDVPLETTECIQGQGEGYRGTVNTIWNGIPCQRWDSQYPHEHDMTPENFKCKDLRENYCRNPDGSESPWCFTTDPNIRVGYCSQIPNCDMSHGQDCYRGNGKNYMGNLSQTRSGLTCSMWDKNMEDLHRHIFWEPDASKLNENYCRNPDDDAHGPWCYTGNPLIPWDYCPISRCEGDTTPTIV
chain 2: MWVTKLLPALLLQHVLLHLLLLPIAIPYAEGQRKRRNTIHEFKKSAKTTLIKIDPALKIKTKKVNTADQCANRCTRNKGLPFTCKAFVFDKARKQCLWFPFNSMSSGVKKEFGHEFDLYENKDYIRNCIIGKGRSYKGTVSITKSGIKCQPWSSMIPHEHSYRGKDLQENYCRNPRGEEGGPWCFTSNPEVRYEVCDIPQCSEVECMTCNGESYRGLMDHTESGKICQRWDHQTPHRHKFLPERYPDKGFDDNYCRNPDGQPRPWCYTLDPHTRWEYCAIKTCADNTMNDTDVPLETTECIQGQGEGYRGTVNTIWNGIPCQRWDSQYPHEHDMTPENFKCKDLRENYCRNPDGSESPWCFTTDPNIRVGYCSQIPNCDMSHGQDCYRGNGKNYMGNLSQTRSGLTCSMWDKNMEDLHRHIFWEPDASKLNENYCRNPDDDAHGPWCYTGNPLIPWDYCPISRCEGDTTPTIV
notes: recombinant human NK4 protein; N-terminal hairpin domain and four kringle domains of HGF α chain, antagonist of HGF
PC-9
  inhibition of HGF-induced hyposensitivity of PC-9 to gefitinib: significantly inhibited
H1975 [1]
  inhibition of HGF-induced hyposensitivity of H1975 to CL-387,785: inhibited the HGF-induced hyposensitivity
[2]
  tumor volume / tumor growth over time: tumor growth rate was slightly reduced
H1975 [3]
  inhibition of HGF-induced hyposensitivity of H1975 to CL-387,785: significantly inhibited
